Laboratory results published in paper PMC9027083 (International Journal of Molecular Sciences, 2022).

Columns and labels:
[1] = biological target: T1, recombinant MBP-EDIII of DENV3 (Dengue virus 3, strain …, UniProt P27915, strain); test: SPR; conditions: both partners purified
T1 construct: also called DENV3 EDIII; envelope protein domain III of DENV3; not shown: MBP, N-terminal, kept

[2] = biological target: T2, recombinant MBP-EDIII of DENV1 (Dengue virus 1, strain Guiana/FGA89/1989, strain); test: SPR; conditions: both partners purified
T2 construct: also called DENV1 EDIII; envelope protein domain III of DENV1; not shown: MBP, N-terminal, kept

Binder | Kd [1] [nM] | koff [1] [s⁻¹] | kon [1] [M⁻¹ s⁻¹] | Kd [2] [nM] | koff [2] [s⁻¹] | kon [2] [M⁻¹ s⁻¹]
1A1D-2 Fab WT (Fab, V domains shown, also called 1A1D-2 WT) VH: EVQLQQSGAELVKPGASVKLSCTASGFNIKDTYMHWVKQRPEQGLEWIGRIDPANGYSKYDPKFQGKATITADTSSNAAYLQLSSLTSEDTAVYFCARDYEGFAYWGQGTLVTVSS VL: DIVLTQSPASLAVSLGQRATISCRASESVVRYGNSFMHWYQQKPGQPPKLLIYRASSLESGIPTRFSGSGSRTDFTLTINPVEADDVATYYCQQTNVDPWAFGGGTKLEIK | 91 | 0.00792 | 87000 | 216 | 0.00755 | 34900
1A1D-2 Fab Y105R.H (Fab, V domains shown) VH: EVQLQQSGAELVKPGASVKLSCTASGFNIKDTYMHWVKQRPEQGLEWIGRIDPANGYSKYDPKFQGKATITADTSSNAAYLQLSSLTSEDTAVYFCARDYEGFARWGQGTLVTVSS VL: DIVLTQSPASLAVSLGQRATISCRASESVVRYGNSFMHWYQQKPGQPPKLLIYRASSLESGIPTRFSGSGSRTDFTLTINPVEADDVATYYCQQTNVDPWAFGGGTKLEIK | 49.2 | 0.00419 | 85200 | 42.6 | 0.00185 | 43500
1A1D-2 Fab A54E.H (Fab, V domains shown) VH: EVQLQQSGAELVKPGASVKLSCTASGFNIKDTYMHWVKQRPEQGLEWIGRIDPENGYSKYDPKFQGKATITADTSSNAAYLQLSSLTSEDTAVYFCARDYEGFAYWGQGTLVTVSS VL: DIVLTQSPASLAVSLGQRATISCRASESVVRYGNSFMHWYQQKPGQPPKLLIYRASSLESGIPTRFSGSGSRTDFTLTINPVEADDVATYYCQQTNVDPWAFGGGTKLEIK | 10.3 | 0.00364 | 354000 | 140 | 0.00617 | 44300
1A1D-2 Fab A54E-Y105R double mutant (Fab, V domains shown) VH: EVQLQQSGAELVKPGASVKLSCTASGFNIKDTYMHWVKQRPEQGLEWIGRIDPENGYSKYDPKFQGKATITADTSSNAAYLQLSSLTSEDTAVYFCARDYEGFARWGQGTLVTVSS VL: DIVLTQSPASLAVSLGQRATISCRASESVVRYGNSFMHWYQQKPGQPPKLLIYRASSLESGIPTRFSGSGSRTDFTLTINPVEADDVATYYCQQTNVDPWAFGGGTKLEIK | 7.11 | 0.00158 | 222000 | 27.4 | 0.0012 | 43900
